In patent CN108101970A:

Molecular target: 抗Cry1Ab单克隆抗体
Test: indirect competitive ELISA (chemiluminescence), anti-Cry1Ab mAb coated at 10 μg/mL; competitor: Cry1Ab mimic nanobody (phage 1.0×10^11 pfu or protein 10 μg/mL)

Substance: Cry1Ab标准品 (from UniProt P0A370 29-607)
- IC50: 0.0427 µg/mL
